Source: the supplement of paper PMC9876800

Test system: peptide library, one residue held at a place counted from the S/T acceptor
Assay: relative phosphorylation of the sub-library (ratio to the mean residue at this position); higher = residue favoured
Procedure, shortened: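 In 384-well plates, purified recombinant kinases (human or orthologue constructs) were incubated for 90 min under kinase-specific conditions with 50 μM biotinylated degenerate peptide sub-libraries and 50 μM ATP spiked with γ-32P-ATP. Each sub-library fixed a single residue at one position around a central Ser/Thr. Relative sub-library phosphorylation, measured by phosphorimaging and densitometry of streptavidin membrane spots, is given as a ratio to the mean residue at that position.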

Sequence of PRKD2, construct: Full length, human (Q9BZL6 whole entry, looked up): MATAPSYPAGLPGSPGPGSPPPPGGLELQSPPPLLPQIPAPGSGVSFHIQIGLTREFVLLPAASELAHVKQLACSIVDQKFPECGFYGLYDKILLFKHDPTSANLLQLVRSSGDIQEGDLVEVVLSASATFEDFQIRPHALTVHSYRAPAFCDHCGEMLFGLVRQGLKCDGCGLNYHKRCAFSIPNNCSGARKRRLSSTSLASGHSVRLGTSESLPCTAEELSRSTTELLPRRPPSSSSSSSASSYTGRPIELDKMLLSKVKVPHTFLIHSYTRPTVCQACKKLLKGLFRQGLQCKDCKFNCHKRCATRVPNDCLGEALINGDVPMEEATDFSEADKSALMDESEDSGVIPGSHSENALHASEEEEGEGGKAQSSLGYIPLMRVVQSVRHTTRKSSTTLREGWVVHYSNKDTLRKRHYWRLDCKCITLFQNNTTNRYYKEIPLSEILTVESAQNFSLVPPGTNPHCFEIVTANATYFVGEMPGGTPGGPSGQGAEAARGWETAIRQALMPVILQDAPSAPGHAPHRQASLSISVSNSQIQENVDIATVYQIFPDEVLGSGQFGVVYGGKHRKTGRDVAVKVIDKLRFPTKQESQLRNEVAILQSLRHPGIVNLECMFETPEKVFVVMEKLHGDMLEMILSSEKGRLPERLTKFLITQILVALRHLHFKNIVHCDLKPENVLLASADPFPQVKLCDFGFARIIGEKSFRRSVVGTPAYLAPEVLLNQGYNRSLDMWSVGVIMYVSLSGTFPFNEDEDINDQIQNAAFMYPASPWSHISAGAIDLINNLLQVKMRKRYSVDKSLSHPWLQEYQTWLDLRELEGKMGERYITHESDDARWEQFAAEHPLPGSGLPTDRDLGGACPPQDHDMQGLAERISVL
Sequence of PRKG2, construct: Full length, human (Q13237 whole entry, looked up): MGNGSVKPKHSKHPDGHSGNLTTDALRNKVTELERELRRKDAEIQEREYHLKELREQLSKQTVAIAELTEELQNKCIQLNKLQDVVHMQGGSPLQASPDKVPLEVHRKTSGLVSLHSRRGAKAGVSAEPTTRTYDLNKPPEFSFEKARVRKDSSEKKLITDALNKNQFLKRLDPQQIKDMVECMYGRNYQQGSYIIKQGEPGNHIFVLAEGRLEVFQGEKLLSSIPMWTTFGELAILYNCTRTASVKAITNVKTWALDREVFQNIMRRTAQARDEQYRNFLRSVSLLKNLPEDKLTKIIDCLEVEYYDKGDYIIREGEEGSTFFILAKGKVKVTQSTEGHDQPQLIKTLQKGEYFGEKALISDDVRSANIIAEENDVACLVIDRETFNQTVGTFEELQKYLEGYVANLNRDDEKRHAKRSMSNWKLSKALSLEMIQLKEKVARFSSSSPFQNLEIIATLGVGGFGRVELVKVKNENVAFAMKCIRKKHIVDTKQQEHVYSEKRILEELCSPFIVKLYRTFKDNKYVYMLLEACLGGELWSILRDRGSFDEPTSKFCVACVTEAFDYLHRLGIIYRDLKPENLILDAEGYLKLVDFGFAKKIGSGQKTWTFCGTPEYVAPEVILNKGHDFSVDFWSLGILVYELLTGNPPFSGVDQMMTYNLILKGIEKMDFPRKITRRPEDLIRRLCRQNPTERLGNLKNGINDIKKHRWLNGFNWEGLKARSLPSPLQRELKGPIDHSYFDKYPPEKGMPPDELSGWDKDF

PRKCI, construct: Full length, human (from UniProt P41743)
relative phosphorylation
Conditions	at +1	at +2	at +3	at +4	at -1	at -2	at -3	at -4	at -5
A fixed	0.617	0.488	0.873	0.871	1.13	0.692	0.835	1.12	1
D fixed	0.136	0.156	0.275	0.43	0.343	0.184	0.208	0.464	0.499
E fixed	0.134	0.152	0.277	0.378	0.317	0.197	0.23	0.464	0.425
F fixed	1.85	0.543	0.961	0.688	0.607	0.995	1.06	0.998	1.39
G fixed	0.617	0.557	0.946	1.07	1.4	0.883	0.846	1.04	1.02
H fixed	0.755	1.42	1.24	1.2	0.896	1.17	1.01	1.1	1.05
I fixed	1.34	0.654	0.855	0.926	0.35	0.447	0.543	0.782	0.792
K fixed	1.93	2.63	2.28	2.33	2.57	1.52	1.86	1.71	1.71
L fixed	1.18	0.538	0.882	0.716	0.617	0.601	0.745	0.761	1.13
M fixed	1.74	0.873	0.722	0.745	1.02	0.878	0.915	0.883	0.814
N fixed	0.58	0.59	0.598	0.765	0.921	0.768	0.579	0.899	0.771
P fixed	0.445	0.401	0.699	1.11	0.731	0.423	0.603	0.75	0.79
Q fixed	0.79	0.655	0.659	0.863	1.12	0.813	0.698	0.859	0.788
R fixed	2.23	5.01	2.67	2.07	2.73	4.2	4.14	1.78	1.76
V fixed	1.04	0.643	0.792	0.774	0.607	0.478	0.655	0.935	0.89
W fixed	0.696	0.658	1.14	1.14	0.637	1.02	1.01	1.53	1.22
Y fixed	0.92	1.04	1.15	0.923	0.993	1.73	1.06	0.926	0.948
pThr fixed	0.598	0.355	0.444	0.621	0.312	0.388	0.638	0.775	0.716
pTyr fixed	0.324	0.334	0.539	0.442	0.309	0.349	0.391	0.388	0.599

PRKD2, construct: Full length, human (from UniProt Q9BZL6)
relative phosphorylation
Conditions	at +1	at +2	at +3	at +4	at -1	at -2	at -3	at -4	at -5
A fixed	0.733	0.998	0.83	0.983	0.788	1.13	0.848	1.19	1.26
D fixed	0.55	1.02	0.913	1.22	0.704	0.232	0.153	0.433	0.319
E fixed	0.422	0.622	0.731	0.928	0.452	0.404	0.266	0.885	0.286
F fixed	0.883	0.718	0.749	0.907	0.592	0.592	0.345	0.718	0.788
G fixed	0.986	1.31	1.65	1.43	0.613	0.516	0.679	1.51	0.762
H fixed	0.977	1.06	1	1.15	1.03	0.838	0.658	0.963	0.517
I fixed	0.932	0.434	0.532	0.602	0.402	0.417	0.222	0.593	1.1
K fixed	1.22	1.07	1.11	1.14	2.6	2.73	2.59	1.86	0.788
L fixed	1.1	0.627	0.772	0.675	1.04	0.785	0.28	0.698	2.71
M fixed	1.12	0.71	0.656	0.732	0.886	1.62	0.424	1.13	0.752
N fixed	2.43	2.02	1.44	1.19	1.73	1.06	0.682	0.778	0.634
P fixed	0.399	1.89	2.6	1.42	1.49	0.415	0.992	0.512	1.35
Q fixed	1.42	1.3	1.09	1.28	0.993	2.09	0.981	1.4	1.02
R fixed	1.14	1.01	0.794	0.701	1.71	2.34	6.73	2.16	1.8
V fixed	0.902	0.49	0.592	0.756	0.571	0.73	0.265	0.714	1.62
W fixed	0.759	0.916	0.736	1.01	0.545	0.474	0.438	0.663	0.515
Y fixed	1.02	0.804	0.796	0.889	0.857	0.625	0.443	0.79	0.78
pThr fixed	0.67	0.623	0.888	0.916	0.194	0.233	0.213	0.628	0.39
pTyr fixed	0.699	0.574	0.946	0.864	0.781	0.31	0.215	0.523	0.775

PRKDC, construct: Full length, human (from UniProt P78527)
relative phosphorylation
Conditions	at +1	at +2	at +3	at +4	at -1	at -2	at -3	at -4	at -5
A fixed	0.244	1.11	0.987	0.798	1.14	1.28	1.11	0.908	1.01
D fixed	0.156	3.46	1.28	1.49	0.887	0.607	0.595	0.795	0.728
E fixed	0.145	2.46	1.6	1.57	1.08	0.733	0.681	0.895	0.773
F fixed	1.31	0.561	1.15	1.13	1.22	1.25	1.13	1.02	1.15
G fixed	0.222	0.753	0.712	0.971	2.01	1.28	1.11	1.35	1.13
H fixed	0.179	0.678	0.721	0.931	0.977	1.08	1.05	1.06	1.07
I fixed	0.705	0.41	0.935	0.728	0.352	0.969	1.08	1.07	1.03
K fixed	0.166	0.556	0.627	0.625	0.345	0.776	0.796	0.961	1.2
L fixed	2.21	0.558	0.943	0.715	0.87	0.831	1	0.953	0.957
M fixed	1.25	0.688	1.27	1.09	1.07	1.06	1.16	1.02	1.06
N fixed	0.407	0.879	0.7	0.902	1.25	1.25	0.829	0.829	0.879
P fixed	0.638	1.2	0.943	0.825	0.725	0.937	1.02	0.907	0.944
Q fixed	7.43	1	0.818	0.869	1.2	0.99	0.891	0.85	0.656
R fixed	0.362	0.725	0.623	0.88	0.686	1.13	1.12	1.17	1.21
V fixed	0.371	0.609	1.02	0.653	0.317	0.852	0.967	0.812	0.979
W fixed	0.309	0.656	1.36	1.6	0.835	0.916	1.16	1.18	1.11
Y fixed	0.892	0.702	1.31	1.22	2.04	1.06	1.3	1.22	1.11
pThr fixed	0.228	1.74	1.81	1.94	0.33	0.77	0.764	0.76	0.72
pTyr fixed	0.194	0.795	1.87	1.87	0.926	0.966	0.829	0.692	0.654

PRKG2, construct: Full length, human (from UniProt Q13237)
relative phosphorylation
Conditions	at +1	at +2	at +3	at +4	at -1	at -2	at -3	at -4	at -5
A fixed	0.876	1.35	1.04	0.834	0.761	0.368	0.816	1.28	1.24
D fixed	0.313	0.408	0.703	0.573	0.421	0.132	0.147	0.472	0.416
E fixed	0.45	0.386	0.697	0.601	0.361	0.113	0.206	0.584	0.415
F fixed	1.34	1.09	0.948	0.919	0.928	0.285	0.477	0.753	0.859
G fixed	0.563	0.911	1.2	1.07	0.529	0.387	0.983	1.23	1.21
H fixed	1.02	1.39	1.42	1.21	1.18	0.662	1.09	0.997	1.05
I fixed	1.56	1.16	0.83	1.01	0.993	0.24	0.337	0.731	0.883
K fixed	1.06	1.21	1.29	1.05	1.78	4.63	2.46	1.74	2.05
L fixed	1.29	0.936	0.943	0.883	1.16	0.321	0.376	0.789	0.745
M fixed	1.36	0.935	0.893	1.1	1.12	0.261	0.412	0.896	0.722
N fixed	0.801	0.765	0.893	1.04	0.921	0.436	0.577	0.766	0.803
P fixed	0.28	0.748	0.932	1.55	1.26	0.349	1.32	1.14	1.07
Q fixed	1.11	0.962	0.924	1.04	0.897	0.465	0.832	0.968	0.836
R fixed	1.41	1.21	1.49	1	1.76	7.58	5.47	2.24	2.01
V fixed	1.9	1.44	0.927	0.937	1.07	0.234	0.399	0.928	0.905
W fixed	0.766	1.01	0.832	1.29	0.66	0.283	0.514	0.762	0.884
Y fixed	0.901	1.09	1.04	0.892	1.2	0.265	0.575	0.716	0.902
pThr fixed	0.816	0.427	0.557	0.911	0.426	0.306	0.471	0.756	0.666
pTyr fixed	0.634	0.543	0.976	0.751	0.502	0.277	0.437	0.502	0.698
